Two molecules from patent publication US20240239878A1 (SHANGHAI QILU PHARMACEUTICAL RESEARCH AND DEVELOPMENT CENTRE, published 2024) can be followed below.

For assay [1], the target named is T1, human DLL3 antigen protein (Kactus Biosystems, Cat. No. DLL-HM103) (human, UniProt Q9NYJ7 27-492).
T1 sequence: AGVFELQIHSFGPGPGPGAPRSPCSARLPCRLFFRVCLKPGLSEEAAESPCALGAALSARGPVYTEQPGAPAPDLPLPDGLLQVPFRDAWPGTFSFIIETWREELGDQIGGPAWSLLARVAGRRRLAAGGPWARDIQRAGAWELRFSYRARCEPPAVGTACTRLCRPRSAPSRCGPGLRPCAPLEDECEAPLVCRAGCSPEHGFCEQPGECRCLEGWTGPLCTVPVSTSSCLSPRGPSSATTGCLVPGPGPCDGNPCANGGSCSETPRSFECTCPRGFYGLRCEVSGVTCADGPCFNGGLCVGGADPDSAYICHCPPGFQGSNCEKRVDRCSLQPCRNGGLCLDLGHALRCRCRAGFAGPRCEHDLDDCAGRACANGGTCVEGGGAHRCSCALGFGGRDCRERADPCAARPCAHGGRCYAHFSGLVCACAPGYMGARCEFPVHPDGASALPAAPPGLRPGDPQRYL
The assay is described as follows: affinity assay with human DLL3 antigen protein (kinetics; method not restated, Biacore as in Example 18 implied).

Assay [2] addresses T2, Cynomolgus monkey DLL3 antigen protein (Kactus Biosystems, Cat. No. CM103) (Cynomolgus monkey, UniProt Q9NYJ7 27-490 (human entry)).
T2 construct: also called cyno DLL3
T2 chain: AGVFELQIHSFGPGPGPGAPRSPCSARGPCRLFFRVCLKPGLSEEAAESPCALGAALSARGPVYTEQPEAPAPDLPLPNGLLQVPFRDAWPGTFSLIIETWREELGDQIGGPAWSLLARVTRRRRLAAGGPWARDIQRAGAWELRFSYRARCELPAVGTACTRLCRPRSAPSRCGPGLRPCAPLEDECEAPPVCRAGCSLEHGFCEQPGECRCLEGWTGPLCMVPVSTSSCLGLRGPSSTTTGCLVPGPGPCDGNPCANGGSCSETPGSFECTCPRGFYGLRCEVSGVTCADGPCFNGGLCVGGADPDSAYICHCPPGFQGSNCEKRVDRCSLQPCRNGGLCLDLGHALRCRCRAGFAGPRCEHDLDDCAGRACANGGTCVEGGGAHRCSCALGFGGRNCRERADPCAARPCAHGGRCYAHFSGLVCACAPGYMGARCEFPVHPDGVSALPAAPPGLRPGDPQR
In words: affinity assay with Cynomolgus monkey DLL3 antigen protein (kinetics; method not restated, Biacore as in Example 18 implied).

In assay [3] the target is T3, human DLL3 on SHP-77 cells (human, UniProt Q9NYJ7 27-618).
T3 construct: also called DLL3-expressing cells (SHP-77)
T3 sequence: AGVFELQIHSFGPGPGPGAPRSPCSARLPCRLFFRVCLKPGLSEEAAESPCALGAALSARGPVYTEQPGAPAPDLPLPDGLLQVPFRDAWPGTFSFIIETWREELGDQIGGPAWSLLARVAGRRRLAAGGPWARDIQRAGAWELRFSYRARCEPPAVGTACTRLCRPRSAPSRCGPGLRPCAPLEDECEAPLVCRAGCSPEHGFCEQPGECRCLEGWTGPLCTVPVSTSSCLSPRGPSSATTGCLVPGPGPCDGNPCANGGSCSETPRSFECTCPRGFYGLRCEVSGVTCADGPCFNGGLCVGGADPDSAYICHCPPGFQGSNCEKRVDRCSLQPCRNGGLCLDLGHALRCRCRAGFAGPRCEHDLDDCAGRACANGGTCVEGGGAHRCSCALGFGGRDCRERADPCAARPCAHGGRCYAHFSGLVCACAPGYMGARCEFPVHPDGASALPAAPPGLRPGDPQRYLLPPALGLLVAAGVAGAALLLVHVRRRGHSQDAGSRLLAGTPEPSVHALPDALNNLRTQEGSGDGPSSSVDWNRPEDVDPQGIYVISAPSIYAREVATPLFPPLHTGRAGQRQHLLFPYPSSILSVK
In words: flow cytometry, SHP-77 cells. On the technique in general: Flow cytometry measures light scatter and fluorescence of single cells or particles in a stream.

Assay [4] addresses T1, human DLL3 antigen protein (Kactus …). In words: affinity assay with human DLL3 antigen protein (kinetics; method not restated, Biacore as in Example 10 implied). A general note: Surface plasmon resonance follows binding to a sensor surface in real time, without labels.

B1: H2-39E2D11 mouse hybridoma-derived humanized anti-DLL3 antibody (antibody, V domains shown)
VH: QVQLVQSGAEVKKPGASVKVSCKASGYTFISYWITWVRQAPGQGLEWMGDIYPGSGSTTNYNEKFKSRVTMTRDTSTSTVYMELSSLRSEDTAVYYCARETTVGGAYAMDYWGQGTLVTVSS
VL: EIVLTQSPATLSLSPGERATLSCRASQSINNNLHWYQQKPGQAPRLLIKYVSQSISGIPARFSGSGSGTDFTLTISSLEPEDFAVYYCQQTNSWPLTFGGGTKLEIK
For the molecule B1, in assay [1], the Kd was found to be 0.739 nM, the koff worked out at 0.000134 s⁻¹ and the kon stood at 181000 M⁻¹ s⁻¹. Further, in assay [2], the dissociation constant Kd stood at 0.143 nM, the koff turned out to be 3.16e-05 s⁻¹ and the kon stood at 221000 M⁻¹ s⁻¹.

B2: hDLL3-3-1 camelid-derived humanized anti-DLL3 antibody (antibody, human IgG1, V domains shown)
VH: EVQLVESGGGLVQPGGSLRLSCAASTYTISSGYMGWFRQAPGKEREGVAAIYIGGSTTLYADSVKGRFTISRDNSKNTLYLQMNSLRAEDTAVYYCAAQLRPNSAYHPLDGRKYNYWGQGTLVTVSS
On to B2, for which, in assay [3], a half-maximal effect (EC50) was put at 0.068 nM and the “Top MFI” value turned out to be 1080 MFI. Further, in assay [4], the Kd was found to be 0.45 nM, the off-rate (koff) worked out at 0.000614 s⁻¹ and the kon turned out to be 1.36e+06 M⁻¹ s⁻¹.

For orientation: Kd means a measure of binding affinity in units of concentration. The koff is the rate constant with which the complex falls apart. As usually defined, the kon is the rate constant with which the complex forms. As usually defined, the EC50 is the concentration at which the effect is half-maximal.
